# From the RNAGym collection of RNA variant scans (doi:10.7554/elife.80360)
# B1: Twister Ribozyme (parent)
# chain: AACACUGCCAAUGCCGGUCCCAAGCCCGGAUAAAAGUGGAGGGGGCGG
# Variants of: B1
# Assay: self-cleavage, relative activity (ratio to wild type); higher = more cleavage; co-transcriptional
row,Variant,self-cleavage
1,G16A G39U,0.187
2,C15G G43U,0.104
3,C15G G43C,0.0538
4,C14U G16C,0.36
5,C14U G16A,0.871
6,G16A G28U,0.607
7,C15G A32C,0.112
8,C14U C20A,0.154
9,C14U C20U,0.942
10,G16A A30G,0.958
11,G16A A30C,0.91
12,C15A C26U,0.0725
13,C15A G36U,0.142
14,C15A G36C,0.0919
15,C14U U31A,0.92
16,C14U U31G,0.941
17,C15G A22U,0.0572
18,C15G A22G,0.0636
19,G16C G24U,0.0773
20,C14G G16C,0.143
21,C14G G16A,0.0993
22,C15A G44A,0.79
23,C15A G44U,0.661
24,C15A G44C,0.57

row,Variant,self-cleavage
1,G16C C21A,0.0849
2,C15G G17C,0.157
3,C15G G17U,0.319
4,C15G G17A,0.326
5,C14U A22U,0.848
6,G16A C26A,0.437
7,G16A C26U,0.107
8,C14G C26A,0.0764
9,C14G C26G,0.0666
10,C15U A22U,0.703
11,C15U A22C,0.932
12,G16C C25G,0.0947
13,G16C C25U,0.188
14,C14U C27U,0.896
15,C14U C27A,0.586
16,C14G G39A,0.0534
17,C14G G39C,0.0468
18,C14G G39U,0.0771
19,G16A G45U,0.858
20,G16A G45C,0.595
21,C15G G29A,0.104
22,C15G G29C,0.0981
23,C15U G44A,0.935
24,G16C G38U,0.535

row,Variant,self-cleavage
1,G16C G38A,0.676
2,C15A G29U,0.607
3,C15A G29C,0.156
4,C14G C21G,0.0402
5,C14G C21A,0.0482
6,C15U C19A,0.228
7,C14U G38U,0.904
8,C14U A35U,1.03
9,C14U A35C,1.05
10,C14U A35G,0.917
11,C15A C25G,0.192
12,C15U G39U,0.27
13,C15G,0.101
14,C15A,0.801
15,C15U,0.975
16,C15G G47A,0.0633
17,C15G G47U,0.0543
18,C15G G47C,0.0669
19,G16C A23U,0.0704
20,G16C A23G,0.092
21,G16C A33C,0.427
22,G16C A33U,0.359
23,C14G C19G,0.078
24,C14G C19A,0.0588

row,Variant,self-cleavage
1,G16A C19A,0.241
2,G16A C19U,0.826
3,C14U G48U,1.17
4,G16C G17A,0.124
5,C14G G42C,0.095
6,C15U G28C,0.988
7,G16C C26U,0.171
8,G16C C26G,0.0968
9,C15A A23C,0.0415
10,G16A G17A,0.281
11,G16A G17C,0.139
12,C15U A23G,0.297
13,C15U A23C,0.134
14,C15G U31A,0.186
15,C15U G17C,0.0992
16,C15U A32U,0.958
17,G16C G43C,0.161
18,G16C G43U,0.11
19,C15U G36C,0.204
20,C15G G48C,0.0718
21,C14U G36A,0.789
22,C15G A33U,0.121
23,G16A G24A,0.0954
24,G16C A30C,0.363

row,Variant,self-cleavage
1,C15A G17A,0.061
2,C15A G17U,0.0769
3,C14G G38A,0.127
4,C15A U18C,0.104
5,C15A U18A,0.0699
6,C15A G42A,0.156
7,G16A G41A,0.364
8,G16A C21A,0.104
9,G16A U31G,0.996
10,C15U C21A,0.138
11,C15U C21U,0.101
12,C14U A33C,0.97
13,C14U A33G,0.927
14,G16C G36A,0.188
15,C14G A35G,0.138
16,C14G A35C,0.244
17,G16C C27A,0.684
18,G16C C27G,0.608
19,G16A C46G,0.813
20,C14U G24U,0.135
21,C14U G24A,0.173
22,C14U G24C,0.102
23,C15A C46G,0.525
24,C15A C46U,0.623

row,Variant,self-cleavage
1,C15A U31C,0.718
2,C14G C27U,0.0942
3,C14G C27G,0.0942
4,C14G C27A,0.0743
5,C15G C19U,0.0895
6,C15G U18A,0.04
7,C15G U18C,0.048
8,C15U G24U,0.122
9,C15G G16U,0.814
10,C15G G16A,0.498
11,C15G G16C,0.305
12,C14G G43A,0.0789
13,C14G C46A,0.078
14,C14U G47C,0.616
15,C14U G47U,1
16,C14U A34G,0.885
17,C15G G42C,0.0975
18,C15G C20G,0.0898
19,C15G C20U,0.0686
20,C15U G47A,0.84
21,C15U G47U,0.8
22,C15U U37C,0.295
23,C15U U37A,0.559
24,C15U U37G,0.568

row,Variant,self-cleavage
1,C14G C15A,0.644
2,C14G C15G,0.243
3,C14U A40U,0.191
4,C14U A40C,0.256
5,C15A G45U,0.528
6,C15G G41C,0.0823
7,C14U C21G,0.108
8,C15G G45U,0.133
9,C15G G45C,0.0924
10,C15G G45A,0.113
11,C15G G28C,0.599
12,C15G G28A,0.624
13,G16C A40C,0.0741
14,G16C A40U,0.114
15,G16C G28C,0.306
16,C15A G28C,0.757
17,C15A G28U,0.736
18,C14G G17U,0.101
19,C15A G24U,0.0837
20,G16A C27U,1.17
21,G16A C27A,0.858
22,C14U A30G,1.02
23,C14U G29C,1.09
